Laboratory results reported in US20220372132A1 (SG MEDICAL, published 2022).

Assays:
[1] = biological target: T1, α5β1 integrin (R&D Systems, USA) (human, UniProt P08648 42-995; P05556 21-728); assay: indirect ELISA, integrin coated at 1 µg/ml, HRP anti-human Fc detection
T1 construct: Bought heterodimer; also called recombinant human α5β1 integrin
Procedure: (§1) The affinities of the monoclonal antibody GP5 for various integrins were measured by indirect ELISA to determine the specificity of the monoclonal antibody GP5 for beta 1 integrin. Each of recombinant human αVβ1 integrin (R&D Systems, USA), αVβ3 integrin (R&D Systems, USA), αVβ5 integrin (R&D Systems, USA), αVβ6 integrin (R&D Systems, USA), αVβ8 integrin (R&D Systems, USA), α5β1 integrin (R&D Systems, USA), and α2bβ3 integrin (R&D Systems, USA) was diluted to 1 μg/ml in 50 μl of PBS, plated in a 96-well immune plate (Corning, USA), and stored at 4° C. overnight for its adsorption. After incubation with a buffer containing 3% bovine serum albumin (Millipore, USA) at 37° C. for 1 h, the wells were treated with the monoclonal antibody GP5 sequentially diluted to concentrations of 0.01, 0.03, 0.1, 0.3, 1, 3, 100, 300, and 1000 nM (50 μl/well). The well plate was incubated at 37° C. for 2 h to allow the antibody to bind to the antigen and washed 3 times with a buffer containing 0.5% Tween 20 (Amresco, USA). The wells were treated with HRP-labeled anti-human Fc IgG secondary antibody diluted 1:3000 with PBS (50 μl/well). The well plate was incubated at 37° C. for 1 h and washed 3 times with a buffer containing 0.5% Tween 20 (Amresco, USA). […] Absorbance was measured at 450 nm using a spectrophotometer (Biotek, USA).

[2] = biological target: T2, recombinant human αVβ1 integrin (R&D Systems, USA) (human, UniProt P06756 31-992; P05556 21-728); assay: as above
T2 construct: Bought heterodimer
Procedure: as §1

T2 sequence (P06756 31-992 limits assumed, chain 1 of 2): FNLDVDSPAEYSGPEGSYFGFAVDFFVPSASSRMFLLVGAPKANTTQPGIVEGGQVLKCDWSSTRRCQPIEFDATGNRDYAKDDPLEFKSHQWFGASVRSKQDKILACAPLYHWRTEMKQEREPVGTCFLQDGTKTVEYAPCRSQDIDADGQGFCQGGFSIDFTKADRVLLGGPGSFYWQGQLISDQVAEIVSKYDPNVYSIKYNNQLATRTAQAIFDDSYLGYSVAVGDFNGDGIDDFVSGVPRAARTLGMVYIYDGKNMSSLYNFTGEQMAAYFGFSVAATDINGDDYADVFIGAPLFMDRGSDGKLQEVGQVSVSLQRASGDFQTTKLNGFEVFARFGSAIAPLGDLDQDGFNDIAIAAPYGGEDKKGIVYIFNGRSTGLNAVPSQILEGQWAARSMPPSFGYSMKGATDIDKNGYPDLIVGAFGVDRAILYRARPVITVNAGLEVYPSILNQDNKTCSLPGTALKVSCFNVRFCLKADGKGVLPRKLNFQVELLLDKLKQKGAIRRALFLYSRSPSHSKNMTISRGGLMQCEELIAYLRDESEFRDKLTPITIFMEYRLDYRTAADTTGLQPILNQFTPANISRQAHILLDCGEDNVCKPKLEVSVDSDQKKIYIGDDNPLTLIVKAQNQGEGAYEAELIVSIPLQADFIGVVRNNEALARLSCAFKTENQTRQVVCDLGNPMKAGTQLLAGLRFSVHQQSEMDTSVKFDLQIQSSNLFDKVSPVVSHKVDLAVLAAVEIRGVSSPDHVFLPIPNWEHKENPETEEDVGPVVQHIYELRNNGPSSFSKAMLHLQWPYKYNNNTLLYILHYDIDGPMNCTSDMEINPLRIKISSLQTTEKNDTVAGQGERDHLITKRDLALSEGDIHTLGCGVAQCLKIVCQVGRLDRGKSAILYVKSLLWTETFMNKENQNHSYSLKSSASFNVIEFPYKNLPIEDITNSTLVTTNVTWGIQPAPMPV
T2 sequence (P05556 21-728 limits assumed, chain 2 of 2): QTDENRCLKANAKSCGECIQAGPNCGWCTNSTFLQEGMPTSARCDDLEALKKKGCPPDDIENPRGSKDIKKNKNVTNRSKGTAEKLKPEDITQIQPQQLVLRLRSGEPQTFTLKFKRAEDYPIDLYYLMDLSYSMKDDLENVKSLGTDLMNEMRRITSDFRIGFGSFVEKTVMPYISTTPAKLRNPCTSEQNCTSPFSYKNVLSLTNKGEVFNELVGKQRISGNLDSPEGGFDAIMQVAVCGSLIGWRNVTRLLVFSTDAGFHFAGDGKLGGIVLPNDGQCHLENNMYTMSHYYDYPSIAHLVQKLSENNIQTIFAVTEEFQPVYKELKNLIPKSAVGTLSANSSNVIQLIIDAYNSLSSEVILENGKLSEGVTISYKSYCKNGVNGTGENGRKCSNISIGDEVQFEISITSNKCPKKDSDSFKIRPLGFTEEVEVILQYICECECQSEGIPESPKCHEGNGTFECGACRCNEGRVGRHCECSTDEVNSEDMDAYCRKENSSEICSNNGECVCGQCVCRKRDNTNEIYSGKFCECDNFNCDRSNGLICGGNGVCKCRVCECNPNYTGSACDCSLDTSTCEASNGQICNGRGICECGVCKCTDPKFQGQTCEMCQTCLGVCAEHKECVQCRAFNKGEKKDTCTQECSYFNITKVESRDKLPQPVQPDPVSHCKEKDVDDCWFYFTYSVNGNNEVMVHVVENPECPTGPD
T1 sequence (P08648 42-995 limits assumed, chain 1 of 2): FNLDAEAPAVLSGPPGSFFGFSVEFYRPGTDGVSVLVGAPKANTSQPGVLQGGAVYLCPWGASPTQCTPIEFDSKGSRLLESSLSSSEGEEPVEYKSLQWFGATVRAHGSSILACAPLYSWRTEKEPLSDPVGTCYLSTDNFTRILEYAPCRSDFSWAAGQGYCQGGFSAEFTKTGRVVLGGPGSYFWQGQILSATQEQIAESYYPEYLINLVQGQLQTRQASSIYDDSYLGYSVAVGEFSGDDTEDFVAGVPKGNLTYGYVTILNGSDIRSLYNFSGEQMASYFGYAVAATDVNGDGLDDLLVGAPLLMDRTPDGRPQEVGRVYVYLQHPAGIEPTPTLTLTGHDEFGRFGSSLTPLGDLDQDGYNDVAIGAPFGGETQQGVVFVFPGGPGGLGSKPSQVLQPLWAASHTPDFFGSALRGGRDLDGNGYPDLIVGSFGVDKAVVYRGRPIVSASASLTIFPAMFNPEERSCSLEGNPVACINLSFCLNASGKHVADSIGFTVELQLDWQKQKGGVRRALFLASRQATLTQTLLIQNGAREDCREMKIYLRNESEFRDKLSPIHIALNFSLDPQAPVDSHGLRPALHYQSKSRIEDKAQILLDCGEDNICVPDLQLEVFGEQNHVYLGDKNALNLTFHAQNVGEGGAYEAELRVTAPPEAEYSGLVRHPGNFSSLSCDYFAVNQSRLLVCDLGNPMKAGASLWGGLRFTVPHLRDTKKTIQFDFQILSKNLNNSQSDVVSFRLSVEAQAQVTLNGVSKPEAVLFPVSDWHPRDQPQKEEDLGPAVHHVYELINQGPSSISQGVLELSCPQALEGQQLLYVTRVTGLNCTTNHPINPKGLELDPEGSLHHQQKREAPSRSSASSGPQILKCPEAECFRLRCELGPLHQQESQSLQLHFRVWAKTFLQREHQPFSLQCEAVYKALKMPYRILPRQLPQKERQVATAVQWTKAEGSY
T1 sequence (P05556 21-728 limits assumed, chain 2 of 2): as the sequence (P05556 21-728 limits assumed, chain 2 of 2) above

B1: monoclonal antibody GP5 (antibody, human IgG1, V domains shown)
VH: QVQLQQSGSELMKPGASVKVSCKASGYTFTNYWIEWIVQRPGHGLEWIGEILPGSVNTNYNAKFKDRATFTADTSTDTASMELSSLTSEDSAVYYCALATPYYALDSWGQGTSVTVSS
VL: DIVMTQAAPSLSVTPGESVSISCRSTESLLHSNGNTYLYWYLQKPGQSPQLLIYRMSNRASGVPDRFSGSGSGTAFTLKIRRVEAEDVGVYYCMQHLEYPFTFGAGTKLELK
notes: Full IgG made in HEK293F cells; The humanized VH is joined to a human IgG1 heavy chain constant region (CH1, CH2, CH3) and the VL to a human Ckappa; also called humanized antibody GP5; modified monoclonal antibody (GP5)
**Q.** Does B1 bind [1]?
**A.** binds

**Q.** Does B1 bind [2]?
**A.** binds
